Values of other authors in US8541373B2, “BChE albumin fusions for the treatment of cocaine abuse” (priority 2009, dated 2013).

Settings: cited from earlier work

Molecule | kcat relative to wild-type BChE (cocaine hydrolase activity) | Catalytic efficiency relative to wild-type BChE (hydrolysis of cocaine)
A328W/Y332A (protein, UniProt P06276 29-602, looked up, variant A328W Y332A) Cholinesterase: EDDIIIATKNGKVRGMNLTVFGGTVTAFLGIPYAQPPLGRLRFKKPQSLTKWSDIWNATKYANSCCQNIDQSFPGFHGSEMWNPNTDLSEDCLYLNVWIPAPKPKNATVLIWIYGGGFQTGTSSLHVYDGKFLARVERVIVVSMNYRVGALGFLALPGNPEAPGNMGLFDQQLALQWVQKNIAAFGGNPKSVTLFGESAGAASVSLHLLSPGSHSLFTRAILQSGSFNAPWAVTSLYEARNRTLNLAKLTGCSRENETEIIKCLRNKDPQEILLNEAFVVPYGTPLSVNFGPTVDGDFLTDMPDILLELGQFKKTQILVGVNKDEGTWFLVAGAPGFSKDNNSIITRKEFQEGLKIFFPGVSEFGKESILFHYTDWVDDQRPENYREALGDVVGDYNFICPALEFTKKFSEWGNNAFFYYFEHRSSKLPWPEWMGVMHGYEIEFVFGLPLERRDNYTKAEEILSRSIVKRWANFAKYGNPNETQNNSTSWPVFKSTEQKYLTLNTESTRIMTKLRAQQCRFWTSFFPKVLEMTGNIDEAEWEWKAGFHRWNNYMMDWKNQFNDYTSKKESCVGL | 40 fold | –
A227S/S315G/A356W/Y360G (protein, UniProt P06276 29-602, looked up, variant A227S S315G A356W Y360G) Cholinesterase: EDDIIIATKNGKVRGMNLTVFGGTVTAFLGIPYAQPPLGRLRFKKPQSLTKWSDIWNATKYANSCCQNIDQSFPGFHGSEMWNPNTDLSEDCLYLNVWIPAPKPKNATVLIWIYGGGFQTGTSSLHVYDGKFLARVERVIVVSMNYRVGALGFLALPGNPEAPGNMGLFDQQLALQWVQKNIAAFGGNPKSVTLFGESSGAASVSLHLLSPGSHSLFTRAILQSGSFNAPWAVTSLYEARNRTLNLAKLTGCSRENETEIIKCLRNKDPQEILLNEAFVVPYGTPLGVNFGPTVDGDFLTDMPDILLELGQFKKTQILVGVNKDEGTWFLVGGAPGFSKDNNSIITRKEFQEGLKIFFPGVSEFGKESILFHYTDWVDDQRPENYREALGDVVGDYNFICPALEFTKKFSEWGNNAFFYYFEHRSSKLPWPEWMGVMHGYEIEFVFGLPLERRDNYTKAEEILSRSIVKRWANFAKYGNPNETQNNSTSWPVFKSTEQKYLTLNTESTRIMTKLRAQQCRFWTSFFPKVLEMTGNIDEAEWEWKAGFHRWNNYMMDWKNQFNDYTSKKESCVGL | – | 500 fold
